{
  "source": "paper PMC5149402",
  "about": "(Structure (London, England : 1993), 2016)",
  "binders": {"B1": {"name": "rat Cerebellin-1 C34,38S double mutant (trimer) (natural protein, UniProt P63182 22-193, looked up)", "chain": "QNETEPIVLEGKSLVVSDSNPTSDPTGTALGISVRSGSAKVAFSAIRSTNHEPSEMSNRTMIIYFDQVLVNIGNNFDSERSTFIAPRKGIYSFNFHVVKVYNRQTIQVSLMLNGWPVISAFAGDQDVTREAASNGVLIQMEKGDRAYLKLERGNLMGGWKYSTFSGFLVFPL"}, "B2": {"name": "full-length rat Cerebellin-1, wild type (hexamer) (natural protein, UniProt P63182 22-193, looked up)", "chain": "QNETEPIVLEGKCLVVCDSNPTSDPTGTALGISVRSGSAKVAFSAIRSTNHEPSEMSNRTMIIYFDQVLVNIGNNFDSERSTFIAPRKGIYSFNFHVVKVYNRQTIQVSLMLNGWPVISAFAGDQDVTREAASNGVLIQMEKGDRAYLKLERGNLMGGWKYSTFSGFLVFPL"}, "B3": {"name": "rat Neurexin-1α (+SS4), domains LNS2 to LNS6 (domain or fragment)", "chain": "not shown"}},
  "key": {"[1]": {"target": "the molecule itself", "assay": "SEC"}, "[2]": {"target": "the molecule itself", "assay": "non-reducing SDS-PAGE"}, "[3]": {"target": "rat Neurexin-1β (+SS4), residues S48 to P292 (β-unique N-terminal region plus LNS6) (rat, UniProt Q63373 48-292)", "sequence (Q63373 48-292)": "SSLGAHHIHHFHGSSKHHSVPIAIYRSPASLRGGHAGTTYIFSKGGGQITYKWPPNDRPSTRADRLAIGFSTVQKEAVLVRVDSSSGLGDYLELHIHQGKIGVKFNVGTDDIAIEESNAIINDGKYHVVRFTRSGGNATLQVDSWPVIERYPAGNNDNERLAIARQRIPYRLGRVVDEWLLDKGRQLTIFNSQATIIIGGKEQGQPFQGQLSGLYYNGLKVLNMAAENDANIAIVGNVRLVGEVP", "assay": "ITC"}, "[4]": {"target": "B2", "assay": "ITC"}},
  "data": [
    {"binder": "B1", "values": [
      {"measurement": "stoichiometry N", "setting": "[1]", "value": 3}
    ]},
    {"binder": "B2", "values": [
      {"measurement": "stoichiometry N", "setting": "[2]", "value": 2},
      {"measurement": "Kd", "setting": "[3]", "value": 47, "unit": "nM"}
    ]},
    {"binder": "B3", "values": [
      {"measurement": "Kd", "setting": "[4]", "value": 35, "unit": "nM"},
      {"measurement": "stoichiometry N", "setting": "[4]", "value": "0.912 ± 0.045"}
    ]}
  ]
}
